Article PMC11919764, “Cryo-electron tomography reveals how COPII assembles on cargo-containing membranes” (Nature Structural & Molecular Biology, 2024)

Target: T1, Sec24 (S. cerevisiae, UniProt P40482 1-926)
T1 construct: Sec24, S. cerevisiae; The Sec24 chain of m2; in the assays it stood in the Sec23–Sec24 complex
T1 sequence: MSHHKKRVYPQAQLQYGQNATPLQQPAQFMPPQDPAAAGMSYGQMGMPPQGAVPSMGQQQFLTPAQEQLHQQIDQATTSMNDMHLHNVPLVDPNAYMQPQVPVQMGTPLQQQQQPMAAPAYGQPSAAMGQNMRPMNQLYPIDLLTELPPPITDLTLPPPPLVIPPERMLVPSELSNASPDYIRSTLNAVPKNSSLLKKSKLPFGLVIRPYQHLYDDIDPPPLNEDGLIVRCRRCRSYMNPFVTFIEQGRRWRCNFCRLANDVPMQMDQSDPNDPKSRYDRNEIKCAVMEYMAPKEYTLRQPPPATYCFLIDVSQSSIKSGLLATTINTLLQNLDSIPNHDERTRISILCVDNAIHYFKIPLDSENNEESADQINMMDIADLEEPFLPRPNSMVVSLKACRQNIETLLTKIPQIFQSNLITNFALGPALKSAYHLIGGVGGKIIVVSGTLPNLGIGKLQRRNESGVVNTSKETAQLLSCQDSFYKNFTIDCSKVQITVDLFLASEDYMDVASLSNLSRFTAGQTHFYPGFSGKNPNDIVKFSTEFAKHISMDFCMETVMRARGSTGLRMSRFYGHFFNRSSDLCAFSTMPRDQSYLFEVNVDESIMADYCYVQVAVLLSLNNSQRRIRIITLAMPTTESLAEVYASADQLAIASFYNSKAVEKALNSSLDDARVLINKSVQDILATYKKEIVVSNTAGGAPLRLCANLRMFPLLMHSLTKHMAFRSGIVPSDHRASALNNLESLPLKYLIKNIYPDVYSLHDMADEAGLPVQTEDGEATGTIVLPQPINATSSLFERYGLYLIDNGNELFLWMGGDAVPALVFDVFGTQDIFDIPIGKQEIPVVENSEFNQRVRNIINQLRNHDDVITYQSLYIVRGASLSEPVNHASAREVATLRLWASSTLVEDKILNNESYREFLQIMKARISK
Assay: cryo-EM structure; cryo-ET with subtomogram averaging of COPII budding reactions on GUVs enriched with Sed5 held by its 6xHis-tag on Ni-NTA lipids: 1 μM Sar1, 180 nM Sec23–Sec24, 173 μM Sec13–Sec31, 360 nM Sed5, 1 mM GMP-PNP, 2.5 mM EDTA (pH 8.0), 10% GUVs (v/v); coated tubes; atomic models rigid-body fitted
Settings: both partners purified

B1: Sed5 cytosolic domain (residues 1–319) with C-terminal 6xHis-tag (domain or fragment, S. cerevisiae)
chain: MNIKDRTSEFQQSVLSYKKRNKNFREQQRERLQEKESENFANNTTGNGKSVSEFQKKASGIAHEISSTAQLLSKLAVLAKRKPMFNDNPVEIAELSFLIKRKIYAIEQSLVQLSQLKKTDVNGNTSNQSSKQPSAVQHSKNVVNLLNTQMKNISGSFKDVLEERQRLEMANKDRWQKLTTDTGHAPADDQTQSNHAADLTTYNNSNPFMTSLLDESSEKNNNSSNQGELSFPQNDSQLMLMEEGQLSNNVYLQERNRAVETIESTIQEVGNLFQQLASMVQEQGEVIQRIDANVDDIDLNISGAQRELLKYFDRIKSNRGGG
notes: Sed5, S. cerevisiae S288c, UniProt Q01590, residues 1–319 (transmembrane helix truncated); flexible triple-glycine linker between residue 319 of Sed5 and the 6xHis-tag; Held on GUVs through Ni-NTA tagged lipids by its C-terminal 6xHis-tag, which stands in place of the transmembrane domain; also called 6xHis-tagged Sed5; source: E. coli BL21, purified (Ni-NTA, HiTrap Q, Superdex 200); not shown: …
binding result: binds
